{
  "source": "patent US11241502B2",
  "about": "“Stable compositions of pegylated carfilzomib compounds” (AMGEN INC., priority 2017, dated 2022)",
  "key": {"[1]": {"test_system": "human colorectal adenocarcinoma cancer cell", "test": "mouse xenograft model of human colorectal adenocarcinoma", "settings": "once-weekly intravenous dosing; Example 13 200 mpk or 150 rising to 250 mpk after 3 week; CFZ-captisol 5 mpk; within 19 days of the first dose"}, "[2]": {"settings": "in humans; cited from earlier work"}, "[3]": {"test": "reverse phase assay of main API peak (integrity of the molecule)", "format": "physicochemical", "description": "In order to identify stable formulations of PEG-CFZ, various formulations were made wherein the desired pegylated carfilzomib compound (API) was dissolve in experimental compositions of excipients, and the stability and quantity of the intact, non-degraded API was monitored and measured in the frozen state (−20° C. or below). Formulations of API was also prepared and tested to determine the ability of each exemplary formulation to provide adequate stability in the liquid state to be suitable for clinical and commercial administration. Here, these formulations were stored at least 8 hours at room temperature and 2 days at a temperatures ranging from 2-8° C. All formulations that were tested contained desired API compounds at 1 mg/mL concentrations.\nFor each formulation, the stability of the API was tested using three observable and/or measurable characteristics, as follows: • 1. Integrity of the molecule, as assessed by the reverse phase assay; • 2. Clarity of the solution, via visual assessment; and • 3. Concentration of the API material in the solution, as assessed by material recovery after centrifugation Results\nFIG. 2 illustrates results of similar measurements taken with the same formulations prepared with exemplary pegylated carfilzomib compound no. 39 instead of example 26. API material recovery is similarly shown in red and percent main API peak at To and T3, as measured by the same reverse phase assay, after storage at 25° C. for 3 days, is shown. Solutions for temperature and time storage conditions were generally prepared as follows—CFZ API was dissolved in formulation buffer by stirring at room temperature for a period of 5 minutes until complete dissolution. Samples were then sterile filtered using 0.2 micron PES filters under aseptic conditions into 3 cc vials, using a 1 ml fill. […]\nThe percent recovery of the exemplary pegylated carfilomib compounds were measured as a function of reverse phase assays for the peak(s) representing the active molecule/compound. The percent was determined based on the area under the curve, as described below. The reverse phase assays were conducted as follows—CFZ samples were analyzed by reverse phase using a Phenomenex Gemini C18, 50×4.6 mm, 3 micron particle size column with a 47 minute HPLC method. […] Main peak percentage was determined by taking Area Under the Curve integration. […] The concentration of each unknown sample was calculated using the equation of the trend-line generated from this calibration curve by plugging in the total integrated area.\nFor each exemplary formulation, the stability of the API was tested or measured by six different criteria or methods, as follows: • 1. Integrity of the molecule, as assessed by the reverse phase assay; • 2. […]"}},
  "data": [
    {"compound": "4-((4S,7S,10S,13S)-10-Benzyl-7-isobutyl-15-methyl-13-((R)-2-methyloxirane-2-carbonyl)-2,5,8,11-tetraoxo-4-phenethyl-3,6,9,12-tetraazahexadecyl)-4-(3-((1-(PEG20K-4-Arm)-1H-1,2,3-triazol-4-yl)methoxy)-4-(pivaloyloxy)benzyl)morpholin-4-ium Formate [Example 13]", "values": [
      {"measurement": "tumor growth compared to vehicle control", "setting": "[1]", "value": "significant attenuation of tumor growth"}
    ]},
    {"compound": "CC(C)C[C@H](NC(=O)[C@H](CCc1ccccc1)NC(=O)CN1CCOCC1)C(=O)N[C@@H](Cc1ccccc1)C(=O)N[C@@H](CC(C)C)C(=O)[C@@]1(C)CO1", "note": "[Carfilzomib]", "values": [
      {"measurement": "half-life in-vivo", "setting": "[2]", "value": "≤ 1", "unit": "h"}
    ]},
    {"compound": "4-((4S,7S,10S,13S)-10-Benzyl-7-isobutyl-15-methyl-13-((R)-2-methyloxirane-2-carbonyl)-2,5,8,11-tetraoxo-4-phenethyl-3,6,9,12-tetraazahexadecyl)-4-(4-(isobutyryloxy)-3-((PEG5K-imino)methyl)benzyl)morpholin-4-ium Methanesulfonate [Example 26]", "values": [
      {"measurement": "main API peak loss (Table 6)", "setting": "[3]; 5kPEG-CFZ compound example 26, 25° C. (8 h), 4° C. (in 1 week) and −70° C. (in 2 weeks)", "value": "minimal main API peak loss"},
      {"measurement": "main API peak loss, 4° C. Loss per 1 week", "setting": "[3]; A5Su formulation, API at 20 mg/mL, storage at 4° C.", "value": 0.0},
      {"measurement": "main API peak loss, 25° C. loss per 8 hr", "setting": "[3]; A5Su formulation, API at 20 mg/mL, storage at 25° C.", "value": 0.0},
      {"measurement": "main API peak loss, −70° C. loss per 2 weeks", "setting": "[3]; A5Su formulation, API at 20 mg/mL, storage at −70° C.", "value": 0.0}
    ]}
  ]
}
